Source: the supplement of paper PMC10065799, “High-throughput profiling of sequence recognition by tyrosine kinases and SH2 domains using bacterial peptide display” (eLife, 2023)
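Note: 11-residue human phosphosite peptides and single-mutation variants displayed on the E. coli surface, counted by deep sequencing, each peptide's frequency after selection divided by its frequency in the unselected input library; frequency after pTyr selection over input frequency; kinase dosed for 20-30% of maximal phosphorylation in three min.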

What follows are sequences tested against Fes (UniProt P07332) (assay: phosphorylation enrichment, bacterial display (enrichment ratio); higher = better substrate or ligand; peptides without Tyr show the background).
Chain of Fes (P07332 whole entry, looked up): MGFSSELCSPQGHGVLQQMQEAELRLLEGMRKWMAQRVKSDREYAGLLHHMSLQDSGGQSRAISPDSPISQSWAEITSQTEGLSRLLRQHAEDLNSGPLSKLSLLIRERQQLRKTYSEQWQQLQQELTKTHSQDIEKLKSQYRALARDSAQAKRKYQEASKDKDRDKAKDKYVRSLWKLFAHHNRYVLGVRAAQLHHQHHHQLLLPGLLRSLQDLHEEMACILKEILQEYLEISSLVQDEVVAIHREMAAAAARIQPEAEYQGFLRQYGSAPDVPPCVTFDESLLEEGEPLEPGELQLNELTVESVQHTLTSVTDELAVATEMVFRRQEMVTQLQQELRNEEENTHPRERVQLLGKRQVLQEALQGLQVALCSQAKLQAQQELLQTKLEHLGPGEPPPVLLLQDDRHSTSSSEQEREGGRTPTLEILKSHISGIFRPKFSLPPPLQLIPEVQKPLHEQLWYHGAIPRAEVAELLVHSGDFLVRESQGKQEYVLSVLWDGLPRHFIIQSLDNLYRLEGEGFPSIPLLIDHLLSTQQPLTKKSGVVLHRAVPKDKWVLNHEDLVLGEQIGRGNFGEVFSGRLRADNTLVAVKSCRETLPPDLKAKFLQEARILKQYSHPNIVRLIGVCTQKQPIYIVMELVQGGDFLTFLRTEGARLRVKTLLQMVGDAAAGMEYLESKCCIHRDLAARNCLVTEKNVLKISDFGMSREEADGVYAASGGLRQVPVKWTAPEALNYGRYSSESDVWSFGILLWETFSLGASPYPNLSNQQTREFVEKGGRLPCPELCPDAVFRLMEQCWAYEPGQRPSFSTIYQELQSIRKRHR
With YLEKYYKFGSR [NNMT_Y25] the phosphorylation enrichment was 0.779.
TTEHIYGDKFF [UBA7_Y524_N527K] was tested, and the phosphorylation enrichment was 0.762.
In the case of MDFRSYPHEFG [RBM10_Y44_R46H_YF], the phosphorylation enrichment is reported as 0.69.
In the case of DVLPEYKLQAP [KCNH2_Y388], the phosphorylation enrichment is reported as 0.861.
In the case of AFSLKYDQQTQ [SYTL4_Y366_E367D], the phosphorylation enrichment is reported as 1.14.
In the case of IQVDAYFSPIH [ADSL_Y432], the phosphorylation enrichment is reported as 1.33.
In the case of SVSVNYGDLVQ [GRAP_Y101_Q104L], the phosphorylation enrichment is reported as 0.855.
Sequence NALVQYQEMEK [BBS4_Y395_A393V] has a phosphorylation enrichment of 1.02.
With SRGRQYQELPR [KCNH2_Y1009] the phosphorylation enrichment was 0.462.
With TLNHQYDFTFH [CSNK1A1_Y292_D297H_YF] the phosphorylation enrichment was 1.17.
MHDKEYFSVHN [MET_Y1234_Y1230H_YF] showed a phosphorylation enrichment of 0.741.
VIIVLYFSLWK [SLC6A2_Y249_V245I] gave a phosphorylation enrichment of 0.631.
For DALDNYVIRGV [PCCA_Y473], the phosphorylation enrichment was 0.842.
Work on NLSVRYDSSLK [ABCC8_Y1353] yielded a phosphorylation enrichment of 0.98.
For SNYRAYATEPQ [TNNI3_Y29_H34Q], the phosphorylation enrichment was 0.72.
Sequence QGIPWYHSQSP [FOXF1_Y331_R330W] has a phosphorylation enrichment of 0.642.
KTVQDYLKKFY [MMP8_Y36_E38K] was tested, and the phosphorylation enrichment was 0.687.
In the case of AQRKLYRNVML [ZNF569_Y33], the phosphorylation enrichment is reported as 0.583.
VEDQFYRVDCF [FHL1_Y208_C209R_YF] was tested, and the phosphorylation enrichment was 1.34.
For SLGKGYYDGGC [MC4R_Y35_S36Y], the phosphorylation enrichment was 1.33.
In the case of DVFRQYASLRG [GANAB_Y379_T383R], the phosphorylation enrichment is reported as 0.625.
EAGKVYLKAPM [CBFB_Y96] gave a phosphorylation enrichment of 0.939.
In the case of GVKLTYGDAQN [SLC28A1_Y404], the phosphorylation enrichment is reported as 0.872.
In the case of FAREGYSALPQ [SARS2_Y52_YF], the phosphorylation enrichment is reported as 0.666.
Work on QAINEYEKWLE [MAP9_Y603] yielded a phosphorylation enrichment of 1.81.
NFATLHLKIYH [PDE6B_Y219_Y219H] showed a phosphorylation enrichment of 1.41.
With PADCRYYTFPQ [GAMT_Y222_A224T] the phosphorylation enrichment was 2.01.
Work on TGEDWYVLVRV [SF3B3_Y904_G908R] yielded a phosphorylation enrichment of 1.42.
Sequence FCIDHYLGKEM [G6PD_Y202_R198C_YF] has a phosphorylation enrichment of 0.901.
In the case of FRASFYRRGDR [LTK_Y677_YF], the phosphorylation enrichment is reported as 0.631.
DPYHVYIKNHV [KCNE3_Y95_R99H] showed a phosphorylation enrichment of 0.826.
KGIQLYDTPFE [SHB_Y297_YF] showed a phosphorylation enrichment of 0.911.
Sequence ERFAFYRDSPR [FOXE3_Y108] has a phosphorylation enrichment of 0.785.

The sequences below were run against FGFR3 (UniProt P22607) in the same assay as above.
Chain of FGFR3 (P22607 whole entry, looked up): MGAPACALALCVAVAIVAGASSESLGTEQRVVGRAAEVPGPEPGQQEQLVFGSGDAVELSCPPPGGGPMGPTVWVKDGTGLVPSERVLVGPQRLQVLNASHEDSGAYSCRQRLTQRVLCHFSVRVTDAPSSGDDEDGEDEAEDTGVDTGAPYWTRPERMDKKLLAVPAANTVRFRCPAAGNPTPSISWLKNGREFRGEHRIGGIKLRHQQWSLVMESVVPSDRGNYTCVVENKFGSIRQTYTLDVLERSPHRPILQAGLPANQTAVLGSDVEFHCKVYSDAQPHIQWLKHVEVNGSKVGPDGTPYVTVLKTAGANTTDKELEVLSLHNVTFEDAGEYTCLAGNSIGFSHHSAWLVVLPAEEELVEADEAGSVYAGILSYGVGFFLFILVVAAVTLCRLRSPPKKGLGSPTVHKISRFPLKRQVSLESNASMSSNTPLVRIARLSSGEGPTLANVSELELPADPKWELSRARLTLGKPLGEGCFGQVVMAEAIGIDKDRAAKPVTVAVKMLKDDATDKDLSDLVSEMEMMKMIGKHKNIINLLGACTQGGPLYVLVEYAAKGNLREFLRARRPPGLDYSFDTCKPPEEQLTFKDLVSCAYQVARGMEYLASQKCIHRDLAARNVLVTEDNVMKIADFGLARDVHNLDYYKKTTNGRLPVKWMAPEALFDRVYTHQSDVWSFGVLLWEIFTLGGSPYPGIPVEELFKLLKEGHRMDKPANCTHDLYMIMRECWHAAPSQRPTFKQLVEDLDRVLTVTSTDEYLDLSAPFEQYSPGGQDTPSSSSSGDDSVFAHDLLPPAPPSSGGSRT
YLEKYYKFGSR [NNMT_Y25] gave a phosphorylation enrichment of 0.553.
With TTEHIYGDKFF [UBA7_Y524_N527K] the phosphorylation enrichment was 0.563.
MDFRSYPHEFG [RBM10_Y44_R46H_YF] showed a phosphorylation enrichment of 0.526.
DVLPEYKLQAP [KCNH2_Y388] gave a phosphorylation enrichment of 0.728.
AFSLKYDQQTQ [SYTL4_Y366_E367D] was tested, and the phosphorylation enrichment was 0.784.
IQVDAYFSPIH [ADSL_Y432] gave a phosphorylation enrichment of 0.772.
SVSVNYGDLVQ [GRAP_Y101_Q104L] gave a phosphorylation enrichment of 0.633.
With NALVQYQEMEK [BBS4_Y395_A393V] the phosphorylation enrichment was 0.721.
In the case of SRGRQYQELPR [KCNH2_Y1009], the phosphorylation enrichment is reported as 0.423.
For TLNHQYDFTFH [CSNK1A1_Y292_D297H_YF], the phosphorylation enrichment was 0.785.
For MHDKEYFSVHN [MET_Y1234_Y1230H_YF], the phosphorylation enrichment was 0.969.
Work on VIIVLYFSLWK [SLC6A2_Y249_V245I] yielded a phosphorylation enrichment of 0.548.
With DALDNYVIRGV [PCCA_Y473] the phosphorylation enrichment was 0.506.
With NLSVRYDSSLK [ABCC8_Y1353] the phosphorylation enrichment was 0.633.
SNYRAYATEPQ [TNNI3_Y29_H34Q] was tested, and the phosphorylation enrichment was 0.475.
Work on QGIPWYHSQSP [FOXF1_Y331_R330W] yielded a phosphorylation enrichment of 0.441.
KTVQDYLKKFY [MMP8_Y36_E38K] gave a phosphorylation enrichment of 0.382.
Work on AQRKLYRNVML [ZNF569_Y33] yielded a phosphorylation enrichment of 0.372.
Work on VEDQFYRVDCF [FHL1_Y208_C209R_YF] yielded a phosphorylation enrichment of 0.831.
SLGKGYYDGGC [MC4R_Y35_S36Y] gave a phosphorylation enrichment of 0.68.
In the case of DVFRQYASLRG [GANAB_Y379_T383R], the phosphorylation enrichment is reported as 0.41.
With EAGKVYLKAPM [CBFB_Y96] the phosphorylation enrichment was 0.609.
Sequence GVKLTYGDAQN [SLC28A1_Y404] has a phosphorylation enrichment of 0.473.
FAREGYSALPQ [SARS2_Y52_YF] was tested, and the phosphorylation enrichment was 0.446.
Work on QAINEYEKWLE [MAP9_Y603] yielded a phosphorylation enrichment of 1.39.
NFATLHLKIYH [PDE6B_Y219_Y219H] showed a phosphorylation enrichment of 0.755.
With PADCRYYTFPQ [GAMT_Y222_A224T] the phosphorylation enrichment was 5.
For TGEDWYVLVRV [SF3B3_Y904_G908R], the phosphorylation enrichment was 0.827.
FCIDHYLGKEM [G6PD_Y202_R198C_YF] was tested, and the phosphorylation enrichment was 0.569.
Work on FRASFYRRGDR [LTK_Y677_YF] yielded a phosphorylation enrichment of 0.526.
For DPYHVYIKNHV [KCNE3_Y95_R99H], the phosphorylation enrichment was 0.533.
In the case of KGIQLYDTPFE [SHB_Y297_YF], the phosphorylation enrichment is reported as 0.584.
Work on ERFAFYRDSPR [FOXE3_Y108] yielded a phosphorylation enrichment of 0.566.

Each sequence was assayed against Fyn (UniProt P06241) in the same assay as above.
Chain of Fyn (P06241 whole entry, looked up): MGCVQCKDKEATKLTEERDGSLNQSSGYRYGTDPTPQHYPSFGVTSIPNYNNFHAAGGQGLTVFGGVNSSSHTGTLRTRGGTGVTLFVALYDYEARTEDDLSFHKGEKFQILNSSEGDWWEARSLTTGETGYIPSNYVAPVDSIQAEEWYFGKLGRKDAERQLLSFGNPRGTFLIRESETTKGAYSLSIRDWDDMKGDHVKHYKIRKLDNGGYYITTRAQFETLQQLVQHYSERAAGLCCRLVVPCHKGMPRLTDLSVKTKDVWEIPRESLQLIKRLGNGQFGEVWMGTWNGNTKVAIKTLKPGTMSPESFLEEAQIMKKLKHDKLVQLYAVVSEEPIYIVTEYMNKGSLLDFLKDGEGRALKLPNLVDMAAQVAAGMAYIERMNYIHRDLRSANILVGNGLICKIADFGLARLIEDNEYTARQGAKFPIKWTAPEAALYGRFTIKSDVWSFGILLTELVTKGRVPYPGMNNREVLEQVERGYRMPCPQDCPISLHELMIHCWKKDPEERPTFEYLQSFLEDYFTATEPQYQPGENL
For YLEKYYKFGSR [NNMT_Y25], the phosphorylation enrichment was 0.501.
Sequence TTEHIYGDKFF [UBA7_Y524_N527K] has a phosphorylation enrichment of 4.92.
With MDFRSYPHEFG [RBM10_Y44_R46H_YF] the phosphorylation enrichment was 0.397.
For DVLPEYKLQAP [KCNH2_Y388], the phosphorylation enrichment was 0.53.
For AFSLKYDQQTQ [SYTL4_Y366_E367D], the phosphorylation enrichment was 0.522.
IQVDAYFSPIH [ADSL_Y432] gave a phosphorylation enrichment of 0.605.
With SVSVNYGDLVQ [GRAP_Y101_Q104L] the phosphorylation enrichment was 0.506.
NALVQYQEMEK [BBS4_Y395_A393V] gave a phosphorylation enrichment of 0.53.
Work on SRGRQYQELPR [KCNH2_Y1009] yielded a phosphorylation enrichment of 0.317.
With TLNHQYDFTFH [CSNK1A1_Y292_D297H_YF] the phosphorylation enrichment was 0.588.
For MHDKEYFSVHN [MET_Y1234_Y1230H_YF], the phosphorylation enrichment was 0.53.
For VIIVLYFSLWK [SLC6A2_Y249_V245I], the phosphorylation enrichment was 0.375.
DALDNYVIRGV [PCCA_Y473] showed a phosphorylation enrichment of 0.457.
Sequence NLSVRYDSSLK [ABCC8_Y1353] has a phosphorylation enrichment of 0.353.
With SNYRAYATEPQ [TNNI3_Y29_H34Q] the phosphorylation enrichment was 0.419.
QGIPWYHSQSP [FOXF1_Y331_R330W] gave a phosphorylation enrichment of 0.46.
Sequence KTVQDYLKKFY [MMP8_Y36_E38K] has a phosphorylation enrichment of 0.366.
In the case of AQRKLYRNVML [ZNF569_Y33], the phosphorylation enrichment is reported as 0.41.
VEDQFYRVDCF [FHL1_Y208_C209R_YF] showed a phosphorylation enrichment of 0.693.
SLGKGYYDGGC [MC4R_Y35_S36Y] showed a phosphorylation enrichment of 0.611.
In the case of DVFRQYASLRG [GANAB_Y379_T383R], the phosphorylation enrichment is reported as 0.393.
For EAGKVYLKAPM [CBFB_Y96], the phosphorylation enrichment was 0.492.
GVKLTYGDAQN [SLC28A1_Y404] was tested, and the phosphorylation enrichment was 0.479.
Work on FAREGYSALPQ [SARS2_Y52_YF] yielded a phosphorylation enrichment of 0.421.
Sequence QAINEYEKWLE [MAP9_Y603] has a phosphorylation enrichment of 1.
With NFATLHLKIYH [PDE6B_Y219_Y219H] the phosphorylation enrichment was 0.476.
PADCRYYTFPQ [GAMT_Y222_A224T] showed a phosphorylation enrichment of 2.82.
TGEDWYVLVRV [SF3B3_Y904_G908R] showed a phosphorylation enrichment of 0.433.
Work on FCIDHYLGKEM [G6PD_Y202_R198C_YF] yielded a phosphorylation enrichment of 0.657.
For FRASFYRRGDR [LTK_Y677_YF], the phosphorylation enrichment was 0.617.
In the case of DPYHVYIKNHV [KCNE3_Y95_R99H], the phosphorylation enrichment is reported as 0.981.
KGIQLYDTPFE [SHB_Y297_YF] was tested, and the phosphorylation enrichment was 0.712.
ERFAFYRDSPR [FOXE3_Y108] gave a phosphorylation enrichment of 0.49.

What follows are sequences tested on c-Abl (mouse) in the same assay as above.
YLEKYYKFGSR [NNMT_Y25] gave a phosphorylation enrichment of 0.59.
Sequence TTEHIYGDKFF [UBA7_Y524_N527K] has a phosphorylation enrichment of 0.728.
In the case of MDFRSYPHEFG [RBM10_Y44_R46H_YF], the phosphorylation enrichment is reported as 0.465.
Sequence DVLPEYKLQAP [KCNH2_Y388] has a phosphorylation enrichment of 0.693.
For AFSLKYDQQTQ [SYTL4_Y366_E367D], the phosphorylation enrichment was 0.716.
Sequence IQVDAYFSPIH [ADSL_Y432] has a phosphorylation enrichment of 0.936.
SVSVNYGDLVQ [GRAP_Y101_Q104L] gave a phosphorylation enrichment of 0.61.
In the case of NALVQYQEMEK [BBS4_Y395_A393V], the phosphorylation enrichment is reported as 0.62.
In the case of SRGRQYQELPR [KCNH2_Y1009], the phosphorylation enrichment is reported as 0.463.
TLNHQYDFTFH [CSNK1A1_Y292_D297H_YF] gave a phosphorylation enrichment of 0.735.
MHDKEYFSVHN [MET_Y1234_Y1230H_YF] was tested, and the phosphorylation enrichment was 0.737.
For VIIVLYFSLWK [SLC6A2_Y249_V245I], the phosphorylation enrichment was 0.693.
Work on DALDNYVIRGV [PCCA_Y473] yielded a phosphorylation enrichment of 0.633.
Sequence NLSVRYDSSLK [ABCC8_Y1353] has a phosphorylation enrichment of 0.55.
SNYRAYATEPQ [TNNI3_Y29_H34Q] was tested, and the phosphorylation enrichment was 0.464.
In the case of QGIPWYHSQSP [FOXF1_Y331_R330W], the phosphorylation enrichment is reported as 0.633.
KTVQDYLKKFY [MMP8_Y36_E38K] showed a phosphorylation enrichment of 1.42.
AQRKLYRNVML [ZNF569_Y33] showed a phosphorylation enrichment of 0.482.
Work on VEDQFYRVDCF [FHL1_Y208_C209R_YF] yielded a phosphorylation enrichment of 0.863.
Sequence SLGKGYYDGGC [MC4R_Y35_S36Y] has a phosphorylation enrichment of 0.841.
For DVFRQYASLRG [GANAB_Y379_T383R], the phosphorylation enrichment was 0.459.
Work on EAGKVYLKAPM [CBFB_Y96] yielded a phosphorylation enrichment of 0.504.
For GVKLTYGDAQN [SLC28A1_Y404], the phosphorylation enrichment was 0.813.
FAREGYSALPQ [SARS2_Y52_YF] gave a phosphorylation enrichment of 0.564.
QAINEYEKWLE [MAP9_Y603] showed a phosphorylation enrichment of 1.06.
Sequence NFATLHLKIYH [PDE6B_Y219_Y219H] has a phosphorylation enrichment of 1.01.
In the case of PADCRYYTFPQ [GAMT_Y222_A224T], the phosphorylation enrichment is reported as 1.7.
For TGEDWYVLVRV [SF3B3_Y904_G908R], the phosphorylation enrichment was 0.954.
FCIDHYLGKEM [G6PD_Y202_R198C_YF] was tested, and the phosphorylation enrichment was 0.49.
FRASFYRRGDR [LTK_Y677_YF] was tested, and the phosphorylation enrichment was 0.634.
In the case of DPYHVYIKNHV [KCNE3_Y95_R99H], the phosphorylation enrichment is reported as 0.685.
Work on KGIQLYDTPFE [SHB_Y297_YF] yielded a phosphorylation enrichment of 0.965.
Work on ERFAFYRDSPR [FOXE3_Y108] yielded a phosphorylation enrichment of 0.625.
